41 sequences from the nanobody polyreactivity screen of Harvey et al. (2022) can be followed below.

This data set in a line: yeast display, Sf9 membrane polyspecificity reagent, FACS + sequencing; frameworks hold sequencing errors. The essentials: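 A nanobody's polyreactivity label depends on the gate it was sorted from. Yeast display cells were stained with 10% biotinylated, detergent-solubilized Sf9 membrane reagent for 1 hour at 4 °C, enriched on streptavidin microbeads and sorted by FACS. The low and high (top ~1%) gates were set on anti-HA fluorescence for expression and streptavidin fluorescence for reagent binding.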
As for “QVQLVESGGGLVQAGGSLRLSCAASGFIFYHNAMGWYRQAPGKERELVAAISYSGGSTYYADSVKGRFTISRVNAKNTVYLQMNSLKPEDTAVYFCATPQTRTYDYWGQGTQVTVSS”, the “polyreactivity (PSR sort gate)” value is given as “high polyreactivity”.
As to “QVQLVESGGGLVQAGGSLRLSCAASGFIFYINAMGWYRQAPGKERELVAAINWRTGSTYYADSVKGRFTISRDNAKNTVYLLMNSLKPEDTAVYYCAAYGYWRRADTEFDYWGQGTQVTVSS”, the “polyreactivity (PSR sort gate)” value is reported as “low polyreactivity”.
For “QVQLVESGGGLVQAGGSLRLSCAASGFIFYIYAMGWYRQAPGKERELVAAFTSGGSTYYADSVKGRFTISRDNAKNTVYLQMNSLKPEDTAVYYCAAESYYGYDYWGQGTQVTVSS”, the “polyreactivity (PSR sort gate)” value is given as “low polyreactivity”.
For the sequence “QVQLVESGGGLVQAGGSLRLSCAASGFIFYKYAMGWYRQAPGKERELVAAITRSGGSTFYADSVKGRFTISRDNAKNTVYLQMNSLKPEDTAVYYCAADAIVQVTPRPRRYDYWGQGTQVTVSS”, the “polyreactivity (PSR sort gate)” value is on record as “high polyreactivity”.
To “QVQLVESGGGLVQAGGSLRLSCAASGFIFYKYGMGWYRQAPGKERELVAAINRRGGTTSYADSVKGRFTISRDNAKNTVYLQMNSLKPEDTAVYYCAASAPGGQDDYWGQGTQVTVSS” belongs “high polyreactivity”; to “QVQLVESGGGLVQAGGSLRLSCAASGFIFYKYVMAWYRQAPGKERELVAAINWSGGSTYYADSVKGRFTISRDNAKNTVYLQMNSLKPEDTAVYYCAALSQYRYDYWGQGTQVTVSS”, “high polyreactivity”.
For “QVQLVESGGGLVQAGGSLRLSCAASGFIFYLNVMGWYRQAPGKERELVATITSGGSTNYADSVKGRFTISRDNAKNTVYLQMNSLKPEDTAVYYCAAEQVWYDWEYDYWGQGTQVTVSS”, the “polyreactivity (PSR sort gate)” value is “high polyreactivity”.
With “QVQLVESGGGLVQAGGSLRLSCAASGFIFYPNAMGWYRQAPGKERELVAGISWSGTSTYYADSVKGRFTISRDNAKNTVYLQMNSLKPEDTAVYYCNRVFYHFDVDRYDYWGQGTQVTVSS”, the “polyreactivity (PSR sort gate)” value is given as “low polyreactivity”.
“QVQLVESGGGLVQAGGSLRLSCAASGFIFYPYAMGWYRQAPGKERELVAVITSGGRTYYADSVKGRFTISRDNAKNTVYLQMNSLKPEDTAVYYCAAQYIQAWRLFDYWGQGTQVTVSS”: the “polyreactivity (PSR sort gate)” value is “low polyreactivity”.
Take “QVQLVESGGGLVQAGGSLRLSCAASGFIFYPYAMGWYRQAPGKEREVVAVITSGGRTYYADSVKGRFTISRDNAKNTVYLQMNSLKPEDTAVYYCAARYGRIHWKANWPEYGYWGQGTQVTVSS”: the “polyreactivity (PSR sort gate)” value is given as “low polyreactivity”.
For “QVQLVESGGGLVQAGGSLRLSCAASGFIFYQYAMGWYRQAPGKERELVAAISTRGGSTYYADSVKGRFTISRDNAKNTVYLQMNSLKPEDTAVYYCNVLKYLSPGTYDYDYWGQGTQVTVSS”, the “polyreactivity (PSR sort gate)” value is on record as “high polyreactivity”.
As for “QVQLVESGGGLVQAGGSLRLSCAASGFIFYRKTMGWYRQAPGKERELDAAISVSGGSTNYADSVKGRFTISRDNAKNTVYLQMNSLKPEDTAVYYCAARVRDSLVYGGWDDYWGQGTQVTVSS”, the entry is “high polyreactivity”; as for “QVQLVESGGGLVQAGGSLRLSCAASGFIFYRNAMGWYRQAPGKERELVAAISGSGGRTYYADSVKGRFTISRDNAKITVYLQMNSLNPEDTAVYYCNAGPLYRGEYDYWGQGTQVTVSS”, “high polyreactivity”; as for “QVQLVESGGGLVQAGGSLRLSCAASGFIFYRNAMGWYRQAPGKERELVAAISVDGSTYYADSVKGRFTISRDNAKNTVYLQMNSQKPEDTAVYYCAAEYYSSYYQYVIYGYWGQGTQVTVSS”, “low polyreactivity”.
In the case of “QVQLVESGGGLVQAGGSLRLSCAASGFIFYRNTMGWYRQAPGKEREFVAAIRWRGGSTYYADSVKGRFTISRDNAKNTVYLQMNSLKPEDTAVYYCAADSRPVYSGFEYWGQGTQVTVSS”, the “polyreactivity (PSR sort gate)” value is listed as “high polyreactivity”.
As for “QVQLVESGGGLVQAGGSLRLSCAASGFIFYRNTMGWYRQAPGKEREFVAAIRWRGGSTYYADSVKGRFTISRDNAKNTVYLQMNSLKPEDTAVYYCNALGKPTWYATTYDYWGQGTQVTVSS”, the entry is “high polyreactivity”; as for “QVQLVESGGGLVQAGGSLRLSCAASGFIFYRNTMGWYRQAPGKESELVAAISRRGGNTYYADSVKGRFTISRDYAKNTVYLQMNSLKPEDTAVYYCNADGNAVYNRVSYDYWGQGTQVTVSS”, “high polyreactivity”; as for “QVQLVESGGGLVQAGGSLRLSCAASGFIFYRYAMGWYRQAPGKERELVAAISRSGGTTYYADSVKGRFTISRDNAKNTVYLQMNSLKPEDTAVYYCNVKRGTIGGYYYWGQGTQVTVSS”, “high polyreactivity”.
Turning to “QVQLVESGGGLVQAGGSLRLSCAASGFIFYRYAMGWYRQAPGKERELVAAISSGGGRTYYADSVKGRFTISRDNAKNTVYLQMNSLKPEDTAVYYCAKGYFWSSYVSSRYGSWGQGTQVTVSS”, the “polyreactivity (PSR sort gate)” value is “high polyreactivity”.
As for “QVQLVESGGGLVQAGGSLRLSCAASGFIFYRYAMGWYRQAPGKERELVARISWNGGITYYADSVKGRFTISRDNAKNTVYLQMNILKPEDTAVYYCNKPDPYGLYTYEYWGQGTQVTVSS”, the entry is “low polyreactivity”; as for “QVQLVESGGGLVQAGGSLRLSCAASGFIFYSNAMGWYRQAPGKERELVAAIRSTGSTSYADSVKGRFTISRDNAKNTVYLQMNILKPEDTAVYYCAKVRYWRGYDYWGQGTQVTVSS”, “high polyreactivity”; as for “QVQLVESGGGLVQAGGSLRLSCAASGFIFYSNAMGWYRQSPGKERELVAGISRGGSTYYADSVKGRFTISRDNAKNTVYLQMNRLKPEDTAVYYCAAKISLGDDYWGQGTQVTVSS”, “low polyreactivity”.
On to “QVQLVESGGGLVQAGGSLRLSCAASGFIFYSSDMGWYRQSPGKERELVAAIDSRGVNTYYADSVKGRFTISRDNAKNTVYLQMNSLKPEDTAVYYCNVDAINWWDWEDFDYWGQGTQVTVSS”, for which the “polyreactivity (PSR sort gate)” value is “low polyreactivity”.
Regarding “QVQLVESGGGLVQAGGSLRLSCAASGFIFYSYALGWYRQAPGKEREFVASISGRTGSTYYADSVKGRFTISRDNAKNTVYLQMNSLKPEDTAVYYCNARIVHSFRYDYWGQGTQVTVSS”, the “polyreactivity (PSR sort gate)” value is given as “low polyreactivity”.
Turning to “QVQLVESGGGLVQAGGSLRLSCAASGFIFYTYAMGWYRQAPGKERELVAAISRGGRTNYADSVKGRFTISRDNAKNSVYLQMNSLKPEDTAVYYCASSYSHRYDYWGQGTQVTVSS”, the “polyreactivity (PSR sort gate)” value is given as “high polyreactivity”.
Regarding “QVQLVESGGGLVQAGGSLRLSCAASGFIFYYAMGWYRQAPGKERELVAGITESDGSTNYADSVKGRFTISRDNAKNTVYLQMNSLKTEVTAVYYCAKDASSLRFDYWGQGTQVTVSS”, the “polyreactivity (PSR sort gate)” value was “low polyreactivity”.
To “QVQLVESGGGLVQAGGSLRLSCAASGFIFYYNAMGRYRQAPGKERELVATIRGSGGSTYYADSVKGRFTISRDNAKNTVYLQMNSLKPEDTAVYYCATTIYGLTSRLYYWGQGTQVTVSS” belongs “high polyreactivity”; to “QVQLVESGGGLVQAGGSLRLSCAASGFIFYYNAMGWYRQAPGKERELVAAISASGDRTYYADSVKGRFTISRDNAKNTVYLQMNSLKPEDTAVYYCAARSQGARYSSRRRFGDYWGQGTQVTVSS”, “high polyreactivity”; to “QVQLVESGGGLVQAGGSLRLSCAASGFIFYYNTMGWYRQATGKESELVDSITWSGDTTYYADSVKGRFTISRDNAKKTVYLQMNSLKPEDTAVYYCAAVHYYPYRRYDYWGQGTQVTVSS”, “low polyreactivity”.
With “QVQLVESGGGLVQAGGSLRLSCAASGFIFYYYAMGWYRQAPAKERELVAVITSGGSTNYADSVKGRFTISRDNAKNTVYLQMNSLKPEDTAVYYCAARSRRRDDYWGQGTQVTVSS”, the “polyreactivity (PSR sort gate)” value is given as “high polyreactivity”.
As for “QVQLVESGGGLVQAGGSLRLSCAASGFIFYYYAMGWYRQAPGKERELFAAISKSGGSTYYADSVKGRFTISRDHAKNTVYLEMNSLKPEDTAVYYCAGVVTTWPYYGFGYWGQGTQVTVSS”, the “polyreactivity (PSR sort gate)” value is “high polyreactivity”.
In the case of “QVQLVESGGGLVQAGGSLRLSCAASGFIFYYYAMGWYRQAPGKERELVAAISVRGGRTYYADSVKGRFTISRDNAKNTVYLQMNSLKPEDTAVYYCAADLYNRGRGSSQSYRTGYDYWGQGTQVTVSS”, the “polyreactivity (PSR sort gate)” value is recorded as “high polyreactivity”.
To “QVQLVESGGGLVQAGGSLRLSCAASGFIFYYYAMGWYRQAPGKERELVAAITSGGGTTYYADSVKGRFTISRDNAKNTVYLQMNSLKPEDTAVYYCNADSYYNSWFYYFDGFDGDYWGQGTQVTVSS” belongs “high polyreactivity”; to “QVQLVESGGGLVQAGGSLRLSCAASGFIFYYYTMGWYRQAPGKERELVAAISSSGGRTYYADSVKGRFTISRDNAKNTVYLQMNSLKPEDTAVYYCAALYRWNQFPYFKGGYWGQGTQVTVSS”, “high polyreactivity”.
“QVQLVESGGGLVQAGGSLRLSCAASGFIGWYRQAPGKERELVAAISWRGGRTYYADSVKGRFTISRDNAKNTVYLQMNSLKPEDTAVYYCNAVGNVWGYDSWGQGTQVTVSS”: the “polyreactivity (PSR sort gate)” value was “high polyreactivity”.
“QVQLVESGGGLVQAGGSLRLSCAASGFIIADYTMGWYRQAPGKERELVAAITRSGDSTYYADSVKGRFTISRDNAKNTVYLQMNSLKPEDTAVYYCNAVNDWYYAYYGVTSFRSYDYWGQGTQVTVSS”: the “polyreactivity (PSR sort gate)” value was “low polyreactivity”.
As for “QVQLVESGGGLVQAGGSLRLSCAASGFIIAFDNAMGWYRQAPGKERELVAAISSGTTTHYADSVKGRFTISRDNAKNTVYLQMNSLKPEDTAVYYCAADSVKQVRYGNVGHDYWGQGTQVTVSS”, the entry is “low polyreactivity”.
Turning to “QVQLVESGGGLVQAGGSLRLSCAASGFIIAGYAMGWYRQAHGKEMELVAAISSRGGSTYYADSVKGRFTISRDNAKNTFYLQMNSLKPEDTSVYYCARTTPTGRQYRRYDYWGQGTQVTESS”, the “polyreactivity (PSR sort gate)” value is on record as “low polyreactivity”.
On to “QVQLVESGGGLVQAGGSLRLSCAASGFIIAYYAMGWDRQAPGKERELVAAINGGGGSRSYADSVKGRFTISRDNAKNTVYLQMNSLKPEDTAVFYCAADGSDDEENDYWGQGTQVTVSS”, for which the “polyreactivity (PSR sort gate)” value is listed as “high polyreactivity”.
As to “QVQLVESGGGLVQAGGSLRLSCAASGFIIDGYAMGWYRQAPGKERELVAVISQRGSNTYYADSVKGRFTISRDNAKNTVYLQMNSLKPEDTAVYYCAARYKQGDSTGGRMNYWGQGTQVTVSS”, the “polyreactivity (PSR sort gate)” value is on record as “high polyreactivity”.
Consider “QVQLVESGGGLVQAGGSLRLSCAASGFIIDRNAMGWYRQAAGKERELVAAITSRGGSTYYADSVKGRFTISRDNAKNTVYLQMNSLKPEDTAVYYCNAGRRVSTYGYWGPGTQVTVSS”, for which the “polyreactivity (PSR sort gate)” value was “high polyreactivity”.
